Measured values reported in patent US20240165165A1, “PHARMACEUTICAL COMPOSITIONS AND THEIR METHODS OF USE” (The Trustees of Indiana University, priority 2021, published 2024).

Tests used:
Format in all cases: cell-based, mouse
[1] = system: RANKL-stimulated RAW264.7 pre-osteoclasts; test: Western blot of NFATc1 and cathepsin K
Description: Western blot analysis and mass spectrometry. Western blot analysis was conducted using known procedures. Antibodies were used against ANXA1, β-catenin, caspase 3, Lrp5, Lrp6, Runx2, Sclerostin, Snail, TGFβ, NFATc1, cathepsin K (Cell Signaling, Danvers, MA, USA), DMP1, ANXA6, CXCL5 (Abcam, Cambridge, MA, USA), M-CSF, MMP9, OPN, TPM4 (Santa Cruz, Dallas, TX, USA), WISP1 (R&D systems, Minneapolis, MN, USA), β-actin (Sigma, Saint Louis, MO, USA), LIMA1, Trail (Novus, Centennial, CO, USA), p53 and CXCL1 (Invitrogen, Carlsbad, California, USA), and DSP (ProteinTech, Rosemont, IL, USA). The expression levels of Sclerostin and Lrp5 in CM were detected by ELISA (My BioSource, San Diego, CA, USA). Proteins from A5 osteocyte CM, Y4 osteocyte CM, and osteoclast control CM (RAW264.7 cells) were analyzed by the HF Hybrid Quadrupole Orbitrap mass spectrometry. Among 549 identified proteins, 49 proteins presented higher expression levels in A5 CM than Y4 CM and control CM. […]
Western blot analysis and protein array analysis. […] A proteome profiler mouse XL cytokine array kit (R&D Systems, Minneapolis, MN, USA) was also employed, and the expression of 111 cytokines and chemokines in MSC-derived CM was determined.
Western blot analysis. […] The protein concentration was determined using a BCA Protein Assay kit (Thermo-Fisher). […]

TRAMP cells = test: Western blot of proteins in treated tumor cells
Description: (§1) Western blot analysis and protein array analysis. Western blot analysis was conducted using the procedure previously described. Antibodies against Lrp5, Runx2, Snail, TGFβ, sclerostin, Calr, p-eIF2α, eIF2α (Cell Signaling, Danvers, MA, USA), LIF, Trail (Novus Biologicals, Centennial, CO, USA), MMP9, NFATc1, cathepsin K (Santa Cruz Biotechnology, Dallas, TX, USA), p53, CXCL2, Ppib (Invitrogen, Carlsbad, CA, USA), Hsp90ab1 (Abcam, Cambridge, UK), and β-actin (Sigma, Saint Louis, MO, USA) were used. A proteome profiler mouse XL cytokine array kit (R&D Systems, Minneapolis, MN, USA) was also employed, and the expression of 111 cytokines and chemokines in MSC-derived CM was determined.
Western blot analysis. Cultured cells were lysed in a radio-immunoprecipitation assay buffer with protease inhibitors (Santa Cruz Biotechnology, Santa Cruz, CA, USA) and phosphatase inhibitors (Calbiochem, Billerica, MA, USA). The protein concentration was determined using a BCA Protein Assay kit (Thermo-Fisher). Proteins were fractionated by 10-15% SDS gels and electro-transferred to polyvinylidene difluoride transfer membranes (Millipore, Billerica, MA, USA). […] The level of proteins was determined using a SUPERSIGNAL™ west femto maximum sensitivity substrate (Thermo Scientific, Waltham, MA, USA), and a luminescent image analyzer (LAS-3000, Fuji Film, Tokyo, Japan) was used to quantify signal intensities. […]

EO771 cells = test: Western blot of proteins in treated tumor cells
Description: Western blot analysis and mass spectrometry. Western blot analysis was conducted using known procedures. Antibodies were used against ANXA1, β-catenin, caspase 3, Lrp5, Lrp6, Runx2, Sclerostin, Snail, TGFβ, NFATc1, cathepsin K (Cell Signaling, Danvers, MA, USA), DMP1, ANXA6, CXCL5 (Abcam, Cambridge, MA, USA), M-CSF, MMP9, OPN, TPM4 (Santa Cruz, Dallas, TX, USA), WISP1 (R&D systems, Minneapolis, MN, USA), β-actin (Sigma, Saint Louis, MO, USA), LIMA1, Trail (Novus, Centennial, CO, USA), p53 and CXCL1 (Invitrogen, Carlsbad, California, USA), and DSP (ProteinTech, Rosemont, IL, USA). The expression levels of Sclerostin and Lrp5 in CM were detected by ELISA (My BioSource, San Diego, CA, USA). Proteins from A5 osteocyte CM, Y4 osteocyte CM, and osteoclast control CM (RAW264.7 cells) were analyzed by the HF Hybrid Quadrupole Orbitrap mass spectrometry. Among 549 identified proteins, 49 proteins presented higher expression levels in A5 CM than Y4 CM and control CM. Among them, 11 proteins (p53; SPARC=osteonectin; TPM1, TPM4=tropomyosin 1 & 4; ANXA1, ANXA6=annexin A1 & A6; FMOD=fibromodulin; OGN=osteoglycin; DSP=desmoplakin; AHNAK=desmoyokin; and LIMA1=[…] domain actin-binding protein 1) were identified as potential tumor suppressors.
as §1
Spheroid assay, plasmid transfection, and Western blot analysis. […]

B1: Trail: recombinant TRAIL proteins, apoptosis-inducing factor (protein, UniProt P50592 1-291, looked up)
Tumor necrosis factor ligand …: MPSSGALKDLSFSQHFRMMVICIVLLQVLLQAVSVAVTYMYFTNEMKQLQDNYSKIGLACFSKTDEDFWDSTDGEILNRPCLQVKRQLYQLIEEVTLRTFQDTISTVPEKQLSTPPLPRGGRPQKVAAHITGITRRSNSALIPISKDGKTLGQKIESWESSRKGHSFLNHVLFRNGELVIEQEGLYYIYSQTYFRFQEAEDASKMVSKDKVRTKQLVQYIYKYTSYPDPIVLMKSARNSCWSRDAEYGLYSIYQGGLFELKKNDRIFVSVTNEHLMDLDQEASFFGAFLIN
Question: What does the source list for B1?
Answer: NFATc1 and cathepsin K [1]: decreased; cleaved caspase 3 in TRAMP cells (TRAMP cells): increase; tumor-promoting genes (Lrp5, Runx2, MMP9, Snail, TGFβ) in TRAMP cells (TRAMP cells; Western blot): downregulated; tumor-promoting/tumorigenic proteins (Lrp5, MMP9, Runx2, TGFβ, Snail, IL1β etc.) in EO771 cells (EO771 cells): reduced
